According to PMC12700824 (Nature Structural & Molecular Biology, 2025):
Residue numbers refer to the chain shown, from its start. Blank lines part the entries; values can stand above or below the binder they belong to.

Key:
[1] = molecular target: the molecule itself; experiment: dynamic light scattering (DLS); FAM118B24–334 WT at 10 µM in PBS pH 7.4, 20 °C
[2] = molecular target: the molecule itself; experiment: SEC; analytical SEC, Superdex Increase 10/300 GL, 50 mM Tris pH 8, 200 mM NaCl, 0.5 mM TCEP; injection concentrations up to 20 µM (mutant mixture: 10 µM each); sizes are coarse estimates from globular standards
FAM118B24–334-F122R = molecular target: T1, FAM118B24–334-F122R (human, UniProt Q9BPY3 24-334, F122R); experiment: ITC; 25 °C, PBS; FAM118B24–334-L32R in the syringe at 500 µM titrated into FAM118B24–334-F122R in the cell at 50 µM; details: both partners purified
T1 construct: also called head-surface mutant; not shown: His6, C-terminal, kept

B1: human FAM118B residues 24-334, C-terminally His-tagged, wild type (domain or fragment, UniProt Q9BPY3 24-334, looked up)
chain: PTKKPRKLLPSLKTKKPRELVLVIGTGISAAVAPQVPALKSWKGLIQALLDAAIDFDLLEDEESKKFQKCLHEDKNLVHVAHDLIQKLSPRTSNVRSTFFKDCLYEVFDDLESKMEDSGKQLLQSVLHLMENGALVLTTNFDNLLELYAADQGKQLESLDLTDEKKVLEWAQEKRKLSVLHIHGVYTNPSGIVLHPAGYQNVLRNTEVMREIQKLYENKSFLFLGCGWTVDDTTFQALFLEAVKHKSDLEHFMLVRRGDVDEFKKLRENMLDKGIKVISYGDDYADLPEYFKRLTCEISTRGTSAGMVREG
notes: not shown: His6, C-terminal, kept
stoichiometry N [1]: < 10 subunits
stoichiometry N [2]: > 8 protomers

stoichiometry N (FAM118B24–334-F122R): ~1
B2: FAM118B24–334-L32R (domain or fragment, human, UniProt Q9BPY3 24-334, looked up)
chain: B1 chain with L9R
notes: also called tail-surface mutant; not shown: His6, C-terminal, kept
